In article PMC10483697:

Target: truncated HsDNPH1 (Homo sapiens 2′-deoxynucleoside 5′-phosphate N-hydrolase 1) (human) (UniProt O43598)
Test: crystal structure; HsDNPH1^Trunc at 8 mg/mL in 30 mM Tris-HCl pH 7.5, 150 mM NaCl, hanging drop, 20 °C, reservoir pH 4.0 with 20% PEG 1500; unliganded crystals and crystals soaked with 50 mM dUMP

- stoichiometry N: 2
Substance: truncated HsDNPH1 (Homo sapiens 2′-deoxynucleoside 5′-phosphate N-hydrolase 1) (from UniProt O43598 20-162) (enzyme)
